Measurements reported in paper PMC11302681, “Structural Basis of Directional Switching by the Bacterial Flagellum” (Research Square, 2023).

B4: FliM (S. Typhimurium) (natural protein, UniProt P26418 1-334, looked up)
chain: MGDSILSQAEIDALLNGDSDTKDEPTPGIASDSDIRPYDPNTQRRVVRERLQALEIINERFARQFRMGLFNLLRRSPDITVGAIRIQPYHEFARNLPVPTNLNLIHLKPLRGTGLVVFSPSLVFIAVDNLFGGDGRFPTKVEGREFTHTEQRVINRMLKLALEGYSDAWKAINPLEVEYVRSEMQVKFTNITTSPNDIVVNTPFHVEIGNLTGEFNICLPFSMIEPLRELLVNPPLENSRHEDQNWRDNLVRQVQHSELELVANFADIPLRLSQILKLKPGDVLPIEKPDRIIAHVDGVPVLTSQYGTVNGQYALRVEHLINPILNSLNEEQPK
notes: FliM, flagellar motor switch protein of Salmonella enterica serovar Typhimurium; endogenous protein in basal bodies; The extreme N-terminus is disordered in both structures; also called FliMM; FliMC; source: endogenous, S. Typhimurium strains TH25455 (CCW locked) and TH25631 (CW locked), in purified basal bodies; copies: 34

How the values were obtained:
[1] = biological target: C. sporogenes MotB with C-terminal Twin-Strep tag (Clostridium sporogenes); assay: cryo-EM structure; C. sporogenes MotA1–262-FliG239–333 fusion co-expressed with MotB-Twin-Strep in E. coli, purified in LMNG; 2.4 Å map
[2] = biological target: T1, FliF (S. Typhimurium, MS-ring protein) (S. Typhimurium (endogenous in strains …, UniProt P15928 1-560)); assay: cryo-EM structure; intact flagellar basal bodies with C-rings from S. Typhimurium TH25631 (fliG-ΔPAA, CW locked), assembled in cells and purified on a sucrose gradient in Triton X-100; C34 class, symmetry expansion and local refinement around 3 subunits, 4.0 Å global; settings: both partners purified
T1 construct: FliF, flagellar M-ring protein of Salmonella enterica serovar Typhimurium; endogenous protein in basal bodies; only its C-terminus (residues 523–560) is described in the C-ring models; also called FliFC; FliF C-terminus; source: endogenous, S. Typhimurium strains TH25455 (CCW locked) and TH25631 (CW locked), in purified basal bodies
T1 sequence (looked up): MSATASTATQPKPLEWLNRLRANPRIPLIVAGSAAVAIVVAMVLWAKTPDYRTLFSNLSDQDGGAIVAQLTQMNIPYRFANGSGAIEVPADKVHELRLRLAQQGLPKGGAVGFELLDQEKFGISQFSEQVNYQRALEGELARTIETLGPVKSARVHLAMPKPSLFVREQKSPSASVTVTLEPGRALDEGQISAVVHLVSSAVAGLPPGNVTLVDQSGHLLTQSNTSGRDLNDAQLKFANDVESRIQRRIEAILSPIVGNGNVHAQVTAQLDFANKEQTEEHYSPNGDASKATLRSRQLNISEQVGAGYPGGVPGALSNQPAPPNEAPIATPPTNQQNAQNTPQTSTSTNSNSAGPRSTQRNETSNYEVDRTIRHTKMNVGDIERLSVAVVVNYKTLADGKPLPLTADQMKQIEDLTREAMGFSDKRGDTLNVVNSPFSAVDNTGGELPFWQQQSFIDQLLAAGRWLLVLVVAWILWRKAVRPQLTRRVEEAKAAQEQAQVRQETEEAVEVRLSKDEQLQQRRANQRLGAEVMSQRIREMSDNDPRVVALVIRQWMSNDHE

[3] = biological target: B4; assay: as above; settings: both partners purified
[4] = biological target: the molecule itself; assay: as above
[5] = biological target: B4; assay: cryo-EM structure; intact flagellar basal bodies with C-rings from S. Typhimurium TH25455 (ΔcheY, CCW locked), assembled in cells and purified on a sucrose gradient in Triton X-100; C34 class, symmetry expansion and local refinement around 3 subunits, 3.6 Å global; settings: both partners purified
[6] = biological target: the molecule itself; assay: cryo-EM structure; C. sporogenes MotA1–262-FliG239–333 fusion co-expressed with MotB-Twin-Strep in E. coli, purified in LMNG; 2.4 Å map
[7] = biological target: the molecule itself; assay: cryo-EM structure; intact flagellar basal bodies with C-rings from S. Typhimurium TH25455 (ΔcheY, CCW locked), assembled in cells and purified on a sucrose gradient in Triton X-100; C34 class, symmetry expansion and local refinement around 3 subunits, 3.6 Å global
[8] = biological target: T1, FliF (S. Typhimurium, MS-ring protein); assay: as above; settings: both partners purified
[9] = biological target: C. sporogenes MotA5MotB2 stator complex (Clostridium sporogenes); assay: cryo-EM structure; C. sporogenes MotA1–262-FliG239–333 fusion co-expressed with MotB-Twin-Strep in E. coli, purified in LMNG; 2.4 Å map

Question: With “C. sporogenes MotB with C-terminal Twin-Strep tag (natural protein)” as the molecule, how does the stoichiometry N [1] read?
Answer: 2

B1: FliG-ΔPAA (S. Typhimurium, CW-locking deletion of residues 169–171) (natural protein)
chain: MSNLSGTDKSVILLMTIGEDRAAEVFKHLSTREVQALSTAMANVRQISNKQLTDVLSEFEQEAEQFAALNINANEYLRSVLVKALGEERASSLLEDILETRDTTSGIETLNFMEPQSAADLIRDEHPQIIATILVHLKRSQAADILALFDERLRHDVMLRIATFGGVQLAELTEVLNGLLDGQNLKRSKMGGVRTAAEIINLMKTQQEEAVITAVREFDGELAQKIIDEMFLFENLVDVDDRSIQRLLQEVDSESLLIALKGAEPPLREKFLRNMSQRAADILRDDLANRGPVRLSQVENEQKAILLIVRRLAETGEMVIGSGEDTYV
notes: FliG of Salmonella enterica serovar Typhimurium with the CW-locking PAA deletion at residues 169–171; also called CW-locked mutant; source: endogenous locus mutant, S. Typhimurium strain TH25631 (CW locked), in purified basal bodies (sucrose gradient); copies: 34
Question: Does B1 bind [2]?
Answer: binds

Question: Does B1 bind [3]?
Answer: binds

Question: What about the “stoichiometry N” value [4] of the same molecule?
Answer: 34

B2: FliN (S. Typhimurium) (natural protein, UniProt P26419 1-137, looked up)
chain: MSDMNNPSDENTGALDDLWADALNEQKATTTKSAADAVFQQLGGGDVSGAMQDIDLIMDIPVKLTVELGRTRMTIKELLRLTQGSVVALDGLAGEPLDILINGYLIAQGEVVVVADKYGVRITDIITPSERMRRLSR
notes: FliN, flagellar motor switch protein of Salmonella enterica serovar Typhimurium; endogenous protein in basal bodies; Three copies of FliN in each C-ring subunit; also called FliN3; source: endogenous, S. Typhimurium strains TH25455 (CCW locked) and TH25631 (CW locked), in purified basal bodies
Question: What does the source list for B2?
Answer: stoichiometry N [5]: 3; binding result [4]: binds

B3: C. sporogenes MotA (residues 1–262, of the MotA1–262-FliG239–333 fusion) (domain or fragment, Clostridium sporogenes, UniProt A0A7U4JQH9 1-262, looked up)
chain: MKKRDILTPIGFVLCFGLVLWGMASGGSNLKVFWDVASVFITIGGSMAAMLITYPMDEFKRLLIVIRQTFKDNGMSNIDVIQNFVDLSRKARREGLLSLEDAINNLTDDYMKKGLRMVVDGIEPETIREIMELEIDEMEKRHKSGADMLKTWGGYAPAFGMVGTLIGLIQMLANLTDSSTIASGMGKALITTFYGSLMANAVFNPMGANLMFKSGVEATTREMVLEGVLAIQSGVNPRIMEEKLVSYLSPPERQAYSKVQVS
notes: MotA of Clostridium sporogenes 388 (DSM 795), residues 1–262; several linker lengths were tried) to FliG 239–333 on one chain; also called MotA component; source: E. coli MT56, pT12 vector, co-expressed with MotB, purified (LMNG, Strep-Tactin XT, Superose 6)
Question: Which “stoichiometry N” value [6] does the source give for B3 here?
Answer: 5

Question: Does B4 bind [7]?
Answer: binds

B5: FliG (S. Typhimurium, wild type, in the CCW-locked C-ring) (natural protein, UniProt P0A1J9 1-331, looked up)
chain: MSNLSGTDKSVILLMTIGEDRAAEVFKHLSTREVQALSTAMANVRQISNKQLTDVLSEFEQEAEQFAALNINANEYLRSVLVKALGEERASSLLEDILETRDTTSGIETLNFMEPQSAADLIRDEHPQIIATILVHLKRSQAADILALFDERLRHDVMLRIATFGGVQPAALAELTEVLNGLLDGQNLKRSKMGGVRTAAEIINLMKTQQEEAVITAVREFDGELAQKIIDEMFLFENLVDVDDRSIQRLLQEVDSESLLIALKGAEPPLREKFLRNMSQRAADILRDDLANRGPVRLSQVENEQKAILLIVRRLAETGEMVIGSGEDTYV
notes: FliG, flagellar motor switch protein of Salmonella enterica serovar Typhimurium; endogenous protein in basal bodies; residues up to 331 are named; One FliG in each of the about 34 C-ring subunits (C34 is the dominant class); also called FliGN; FliGM; source: endogenous, S. Typhimurium strain TH25455 (CCW locked, ΔcheY), in purified basal bodies (sucrose gradient); copies: 34
Question: Does B5 bind [8]?
Answer: binds

Question: Does B5 bind [5]?
Answer: binds

Question: And the “stoichiometry N” value [7]?
Answer: 34

B6: C. sporogenes FliG C-terminal domain (residues 239–333, of the MotA1–262-FliG239–333 fusion) (domain or fragment)
chain: VFEDIITLDDVAIQRVLREVETKDLALALKGSSEEVANVIFRNQSKRAASSLKEDIEFLGPVRIMDVEKAQQGIVSIIRRLDEAGEIVISRGGED
Question: B6 was tested. Which stoichiometry N [9] did it give?
Answer: < 3
